Experimental data published in publication PMC4278678 (Biochemistry, 2014).

Target: the molecule itself
Assay: cross-linking

Row | Protein | stoichiometry N
1 | FLAG-tagged 7xAla/L107C NEMO (natural protein, human, UniProt Q9Y6K9 1-419, looked up) MNRHLWKSQLAEMVQPSGGPAADQDVLGEESPLGKPAMLHLPSEQGAPETLQRALEENQELRDAIRQSNQILRERAEELLHFQASQREEKEFLMAKFQEARKLVERCGLEKLDLKRQKEQALREVEHLKRAQQQMAEDKASVKAQVTSLLGELQESQSRLEAATKEAQALEGRARAASEQARQLESEREALQQQHSVQVDQLRMQGQSVEAALRMERQAASEEKRKLAQLQVAYHQLFQEYDNHIKSSVVGSERKRGMQLEDLKQQLQQAEEALVAKQEVIDKLKEEAEQHKIVMETVPVLKAQADIYKADFQAERQAREKLAEKKELLQEQLEQLQREYSKLKASAQESARIEDMRKRHVEVSQAPLPPAPAYLSSPLALPSQRRSPPEEPPDFCCPKCQYQAPDMDTLQIHVMECIE | 2

Target: the molecule itself
Assay: cross-linking
Remark: another data set of the same source

Row | Protein | stoichiometry N
2 | 9xHis-SUMO-NEMO(1–120)(des3C/C54), oxidised covalent dimer (domain or fragment, human, UniProt Q9Y6K9 1-120, looked up, interchain disulfide bond at Cys54) MNRHLWKSQLAEMVQPSGGPAADQDVLGEESPLGKPAMLHLPSEQGAPETLQRCLEENQELRDAIRQSNQILRERAEELLHFQASQREEKEFLMAKFQEARKLVERLGLEKLDLKRQKEQ | 2
3 | 9xHis-SUMO-NEMO(1–120)(des4C/L107C), covalent dimer (domain or fragment, human, UniProt Q9Y6K9 1-120, looked up, interchain disulfide bond at Cys107) MNRHLWKSQLAEMVQPSGGPAADQDVLGEESPLGKPAMLHLPSEQGAPETLQRALEENQELRDAIRQSNQILRERAEELLHFQASQREEKEFLMAKFQEARKLVERCGLEKLDLKRQKEQ | 2
4 | 9xHis-SUMO-NEMO(1–120)(des3C/C54/L107C), covalent dimer (domain or fragment, human, UniProt Q9Y6K9 1-120, looked up, interchain disulfide bonds at Cys54 and Cys107) MNRHLWKSQLAEMVQPSGGPAADQDVLGEESPLGKPAMLHLPSEQGAPETLQRCLEENQELRDAIRQSNQILRERAEELLHFQASQREEKEFLMAKFQEARKLVERCGLEKLDLKRQKEQ | 2
5 | 9xHis-SUMO-NEMO(44–111)(des2C/C54), covalent dimer (domain or fragment, human, UniProt Q9Y6K9 44-111, looked up, also: covalent dimer via interchain disulfide at Cys54) {9xHis‑SUMO}-EQGAPETLQRCLEENQELRDAIRQSNQILRERAEELLHFQASQREEKEFLMAKFQEARKLVERLGLEK | 2
6 | 9xHis-SUMO-NEMO(44–111)(des3C/L107C), covalent dimer (domain or fragment, human, UniProt Q9Y6K9 44-111, looked up, also: covalent dimer via interchain disulfide at Cys107) {9xHis‑SUMO}-EQGAPETLQRALEENQELRDAIRQSNQILRERAEELLHFQASQREEKEFLMAKFQEARKLVERCGLEK | 2
7 | 9xHis-SUMO-NEMO(44–111)(des2C/C54/L107C), covalent dimer (domain or fragment, human, UniProt Q9Y6K9 44-111, looked up, also: covalent dimer via interchain disulfides at Cys54 and Cys107) {9xHis‑SUMO}-EQGAPETLQRCLEENQELRDAIRQSNQILRERAEELLHFQASQREEKEFLMAKFQEARKLVERCGLEK | 2
